The source of these data is doi:10.1101/2021.08.11.455960.

The target of test [1] is human angiotensin-converting enzyme 2 ectodomain (human) (UniProt Q9BYF1). Nature of the test: SPR. On the technique in general: In SPR one partner is held on a chip, and binding of the other changes the refractive index at the surface.
Test [2] has as its target Rhinolophus affinis angiotensin-converting enzyme 2 ectodomain (Rhinolophus affinis). Put plainly: SPR.

Chain of UniProt Q9BYF1 (Q9BYF1 19-615): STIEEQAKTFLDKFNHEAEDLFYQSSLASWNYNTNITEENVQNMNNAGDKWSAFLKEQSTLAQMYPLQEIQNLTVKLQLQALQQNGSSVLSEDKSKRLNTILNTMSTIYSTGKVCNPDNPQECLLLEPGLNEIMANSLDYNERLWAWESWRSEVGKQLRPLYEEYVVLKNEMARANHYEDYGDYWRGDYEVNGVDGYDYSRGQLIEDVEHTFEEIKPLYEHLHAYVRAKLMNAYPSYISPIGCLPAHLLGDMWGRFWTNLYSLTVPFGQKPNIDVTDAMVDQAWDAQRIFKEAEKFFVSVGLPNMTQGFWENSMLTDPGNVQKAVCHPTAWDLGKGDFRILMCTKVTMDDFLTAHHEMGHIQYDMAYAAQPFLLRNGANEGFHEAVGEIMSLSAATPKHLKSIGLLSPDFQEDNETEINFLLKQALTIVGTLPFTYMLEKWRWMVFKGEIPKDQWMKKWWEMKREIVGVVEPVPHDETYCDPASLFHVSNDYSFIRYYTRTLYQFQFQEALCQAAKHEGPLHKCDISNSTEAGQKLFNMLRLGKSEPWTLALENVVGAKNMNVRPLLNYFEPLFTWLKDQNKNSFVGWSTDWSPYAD

One may read the Kd as the constant that tells how readily two partners part at equilibrium. As for “RaTG13 spike receptor binding domain (domain or fragment)”, the Kd in test [1] turned out to be 21 nM; in test [2] it was 12 nM.
